Assay results: patent US20230270877A1, “Combination Therapy” (Seagen Inc., priority 2020, published 2023)

Columns and labels:
human FcγRIIIa = target: T1, human FcγRIIIa (Homo sapiens, UniProt P08637); experiment: FcγR binding by flow cytometry on transfected CHO cells; conditions: FIG. 11B-D
T1 construct: expressed in transfected cells; host or cells: CHO cells
Experimental: (§1) CHO cells were incubated with increasing concentrations of antibodies and a secondary antibody used to assess binding as monitored by flow cytometry.
(§2) For each cell line, 50 million cells were washed once in 50 mL of PBS. Cells were counted again and resuspended at 2.2 million cells/mL in BD stain buffer. Cells were plated in a 96-well round bottom plate at 0.1 mL of cells per well.
(§3) Antibody solutions were diluted to make the following final concentrations: 3 mg/mL, 1 mg/mL, 0.3 mg/mL, 0.1 mg/mL, 0.03 mg/mL, 0.01 mg/mL, 0.003 mg/mL, 0.001 mg/mL, 0.0003 mg/mL. Each antibody solution was diluted at 10×(i.e., […] of media) to produce the following concentrations: 300, 100, 30, 10, 3, 1, […] μg/ml. Media was removed from the cells and the cells were washed with media. 100 μL of antibody solution was added to each well. Antibody solutions were added with decreasing concentrations in the vertical direction. […]
(§4) Next, PE conjugated anti-human IgG Fc antibody was prepared (1/50 dilution of 1 mg/ml concentration=[…] saturating concentration) in BD stain buffer. […] Cells were resuspended in PBS+1% paraformaldehyde and kept at 4° C. until they were analyzed by flow cytometry. Samples were analyzed using the Attune flow cytometer. […]

human FcγRIIb = target: T2, human FcγRIIb (Homo sapiens, UniProt P31994); experiment: as above; conditions: FIG. 11B-D
T2 construct: expressed in transfected cells; host or cells: CHO cells
T2 sequence (P31994 43-310): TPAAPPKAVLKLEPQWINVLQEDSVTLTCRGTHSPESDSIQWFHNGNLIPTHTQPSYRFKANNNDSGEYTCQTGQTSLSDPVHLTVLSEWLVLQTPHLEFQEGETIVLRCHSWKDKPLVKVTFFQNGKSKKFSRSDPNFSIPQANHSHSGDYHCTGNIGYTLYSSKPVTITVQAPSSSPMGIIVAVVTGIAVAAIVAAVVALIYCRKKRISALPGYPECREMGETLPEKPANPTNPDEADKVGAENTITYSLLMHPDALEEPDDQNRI
Experimental: as §1, §2, §3, §4

Farage cells = format: in vivo; conditions: single agent, SEA-CD70 3 mg/kg or SGN-35 1 mg/kg
MM1S MM cells = experiment: Disseminated MM xenograft survival model (MM1S); format: in vivo, SCID animals; conditions: 0.1 mg/kg SEA-BCMA weekly x5 IP and/or 0.01 mg/kg SGN-CD48A once IP; N=8/group; FIG. 21A
Experimental: MM1S MM cells were injected IV into SCID animals, which contain active innate immune effector cells to mediate ADCP and ADCC. Seven days post implant, dosing was initiated with 0.1 mg/kg SEA-BCMA and/or 0.01 mg/kg SGN-CD48A, and animals were monitored for survival. SEA-BCMA was dosed weekly for 5 weeks IP and SGN-CD48A was dosed once IP. Animals were followed for 160 days for survival (N=8/group). By day 51, all untreated animals had been humanely euthanized according to IACUC protocols.

T1 sequence (P08637 17-254): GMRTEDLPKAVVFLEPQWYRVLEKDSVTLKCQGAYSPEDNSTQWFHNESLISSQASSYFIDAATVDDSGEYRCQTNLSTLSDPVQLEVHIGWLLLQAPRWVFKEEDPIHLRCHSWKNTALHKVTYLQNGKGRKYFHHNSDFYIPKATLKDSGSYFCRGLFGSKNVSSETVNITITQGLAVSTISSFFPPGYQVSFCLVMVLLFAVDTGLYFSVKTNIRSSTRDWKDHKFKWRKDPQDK

B1: SEA-CD40: nonfucosylated, humanized version of murine S2C6 anti-CD40; VH and VL of SEQ ID NOs: 28 and 29 (antibody, V domains shown)
VH: EVQLVESGGGLVQPGGSLRLSCAASGYSFTGYYIHWVRQAPGKGLEWVARVIPNAGGTSYNQKFKGRFTLSVDNSKNTAYLQMNSLRAEDTAVYYCAREGIYWWGQGTLVTVSS
VL: DIQMTQSPSSLSASVGDRVTITCRSSQSLVHSNGNTFLHWYQQKPGKAPKLLIYTVSNRFSGVPSRFSGSGSGTDFTLTISSLQPEDFATYFCSQTTHVPWTFGQGTKVEIK
modifications: nonfucosylated; VH of SEA-CD40; VL of SEA-CD40
With B1 the “affinity for FcγRIIIa (rank among CD40 antibodies tested)” value (human FcγRIIIa) was “highest affinity” and the “affinity for FcγRIIb (rank among CD40 antibodies tested)” value (human FcγRIIb) was “lowest affinity”.

B2: SEA-CD70: nonfucosylated antibody targeting the CD70 antigen; VH and VL of SEQ ID NOs: 41 and 42 (antibody, V domains shown)
VH: QVQLVQSGAEVKKPGASVKVSCKASGYTFTNYGMNWVRQAPGQGLKWMGWINTYTGEPTYADAFKGRVTMTRDTSISTAYMELSRLRSDDTAVYYCARDYGDYGMDYWGQGTTVTVSS
VL: DIVMTQSPDSLAVSLGERATINCRASKSVSTSGYSFMHWYQQKPGQPPKLLIYLASNLESGVPDRFSGSGSGTDFTLTISSLQAEDVAVYYCQHSREVPWTFGQGTKVEIK
modifications: nonfucosylated; SEA-CD70 heavy chain variable region; SGN-CD70 light chain variable region
With B2 the “day at which tumors reached an average 5 fold increase of original size” value (Farage cells; day post implant, untreated 28.5) was 34.5 days and the “days post treatment at which tumors reached an average 5 fold increase” value (Farage cells; untreated 9.5) was 15.5 days post treatment.

B3: SEA-BCMA: nonfucosylated antibody targeting B-cell maturation antigen (BCMA); VH and VL of SEQ ID NOs: 45 and 46 (antibody, V domains shown)
VH: QVQLVQSGAEVKKPGASVKLSCKASGYTFTDYYIHWVRQAPGQGLEWIGYINPNSGYTNYAQKFQGRATMTADKSINTAYVELSRLRSDDTAVYFCTRYMWERVTGFFDFWGQGTMVTVSS
VL: DIQMTQSPSSVSASVGDRVTITCLASEDISDDLAWYQQKPGKAPKVLVYTTSSLQSGVPSRFSGSGSGTDFTLTISSLQPEDFATYFCQQTYKFPPTFGGGTKVEIK
modifications: nonfucosylated; SGN-BCMA heavy chain variable region; SGN-BCMA light chain variable region
For B3, the “animals alive by day 160” value (MM1S MM cells) was “zero”.
